Target: SARS-CoV-2 nsp12 (SARS-CoV-2, UniProt P0DTD1)
Test: cryo-EM structure

B1: SARS-CoV-2 nsp9 (natural protein)
chain: NNELSPVALRQMSCAAGTTQTACTDDNALAYYNTTKGGRFVLALLSDLQDLKWARFPKSDGTGTIYTELEPPCRFVTDTPKGPKVKYLYFIKGLNNLNRGMVLGSLAATVRLQ
Does B1 bind?
Result: binds

B2: RNAylated-nsp9 (20mer RNA) (natural protein)
chain: NNELSPVALRQMSCAAGTTQTACTDDNALAYYNTTKGGRFVLALLSDLQDLKWARFPKSDGTGTIYTELEPPCRFVTDTPKGPKVKYLYFIKGLNNLNRGMVLGSLAATVRLQ
Does B2 bind?
Result: binds
